Measured values taken from patent publication WO2011147762A2.

Tests used:
[1] = molecular target: ED-B fibronectin antigen protein (recombinant), bound to CNBr activated sepharose 4B (UniProt P02751); experiment: ED-B sepharose column, % of total radioactivity bound; Study A; inositol 5 mg/mL; day 7
[2] = molecular target: ED-B fibronectin antigen protein (recombinant), bound to CNBr activated sepharose 4B (UniProt P02751); experiment: ED-B sepharose column, % of total radioactivity bound; Study A; inositol 10 mg/mL; day 3
[3] = molecular target: ED-B fibronectin antigen protein (recombinant), bound to CNBr activated sepharose 4B (UniProt P02751); experiment: ED-B sepharose column, % of total radioactivity bound; Study B3; human serum albumin 10 mg/mL; day 1
[4] = molecular target: ED-B fibronectin antigen protein (recombinant), bound to CNBr activated sepharose 4B (UniProt P02751); experiment: ED-B sepharose column, % of total radioactivity bound; Study A; sodium thiosulfate 10 mg/mL; day 0
[5] = molecular target: ED-B fibronectin antigen protein (recombinant), bound to CNBr activated sepharose 4B (UniProt P02751); experiment: ED-B sepharose column, % of total radioactivity bound; Study B3; ascorbic acid 25 mg/mL; day 2
[6] = molecular target: ED-B fibronectin antigen protein (recombinant), bound to CNBr activated sepharose 4B (UniProt P02751); experiment: ED-B sepharose column, % of total radioactivity bound; Study A; methionine 5 mg/mL; day 5
[7] = molecular target: ED-B fibronectin antigen protein (recombinant), bound to CNBr activated sepharose 4B (UniProt P02751); experiment: ED-B sepharose column, % of total radioactivity bound; Study A; inositol 50 mg/mL; day 0
[8] = molecular target: ED-B fibronectin antigen protein (recombinant), bound to CNBr activated sepharose 4B (UniProt P02751); experiment: ED-B sepharose column, % of total radioactivity bound; Study A; inositol 10 mg/mL; day 1
[9] = molecular target: ED-B fibronectin antigen protein (recombinant), bound to CNBr activated sepharose 4B (UniProt P02751); experiment: ED-B sepharose column, % of total radioactivity bound; Study A; maltose 10 mg/mL; day 3
[10] = molecular target: ED-B fibronectin antigen protein (recombinant), bound to CNBr activated sepharose 4B (UniProt P02751); experiment: ED-B sepharose column, % of total radioactivity bound; Study A; methionine 25 mg/mL; day 7
[11] = molecular target: ED-B fibronectin antigen protein (recombinant), bound to CNBr activated sepharose 4B (UniProt P02751); experiment: ED-B sepharose column, % of total radioactivity bound; Study A; maltose 25 mg/mL; day 0
[12] = molecular target: ED-B fibronectin antigen protein (recombinant), bound to CNBr activated sepharose 4B (UniProt P02751); experiment: ED-B sepharose column, % of total radioactivity bound; Study B3; thioglycerol 10 mg/mL; day 1
[13] = molecular target: ED-B fibronectin antigen protein (recombinant), bound to CNBr activated sepharose 4B (UniProt P02751); experiment: ED-B sepharose column, % of total radioactivity bound; Study A; inositol 10 mg/mL; day 0
[14] = molecular target: ED-B fibronectin antigen protein (recombinant), bound to CNBr activated sepharose 4B (UniProt P02751); experiment: ED-B sepharose column, % of total radioactivity bound; Study A; methionine 25 mg/mL; day 5
[15] = molecular target: ED-B fibronectin antigen protein (recombinant), bound to CNBr activated sepharose 4B (UniProt P02751); experiment: ED-B sepharose column, % of total radioactivity bound; Study A; methionine 5 mg/mL; day 7
[16] = molecular target: ED-B fibronectin antigen protein (recombinant), bound to CNBr activated sepharose 4B (UniProt P02751); experiment: ED-B sepharose column, % of total radioactivity bound; Study A; sodium thiosulfate 10 mg/mL; day 7
[17] = molecular target: ED-B fibronectin antigen protein (recombinant), bound to CNBr activated sepharose 4B (UniProt P02751); experiment: ED-B sepharose column, % of total radioactivity bound; Study A; inositol 25 mg/mL; day 0
[18] = molecular target: ED-B fibronectin antigen protein (recombinant), bound to CNBr activated sepharose 4B (UniProt P02751); experiment: ED-B sepharose column, % of total radioactivity bound; Study B3; human serum albumin 10 mg/mL; day 2
[19] = molecular target: ED-B fibronectin antigen protein (recombinant), bound to CNBr activated sepharose 4B (UniProt P02751); experiment: ED-B sepharose column, % of total radioactivity bound; Study A; sodium thiosulfate 5 mg/mL; day 7
[20] = molecular target: ED-B fibronectin antigen protein (recombinant), bound to CNBr activated sepharose 4B (UniProt P02751); experiment: ED-B sepharose column, % of total radioactivity bound; Study A; maltose 10 mg/mL; day 0
[21] = molecular target: ED-B fibronectin antigen protein (recombinant), bound to CNBr activated sepharose 4B (UniProt P02751); experiment: ED-B sepharose column, % of total radioactivity bound; Study B3; no-excipient control (PBS); day 1
[22] = molecular target: ED-B fibronectin antigen protein (recombinant), bound to CNBr activated sepharose 4B (UniProt P02751); experiment: ED-B sepharose column, % of total radioactivity bound; Study A; maltose 25 mg/mL; day 3
[23] = molecular target: ED-B fibronectin antigen protein (recombinant), bound to CNBr activated sepharose 4B (UniProt P02751); experiment: ED-B sepharose column, % of total radioactivity bound; Study B3; human serum albumin 10 mg/mL; day 3
[24] = molecular target: ED-B fibronectin antigen protein (recombinant), bound to CNBr activated sepharose 4B (UniProt P02751); experiment: ED-B sepharose column, % of total radioactivity bound; Study A; maltose 25 mg/mL; day 1
[25] = molecular target: ED-B fibronectin antigen protein (recombinant), bound to CNBr activated sepharose 4B (UniProt P02751); experiment: ED-B sepharose column, % of total radioactivity bound; Study A; maltose 5 mg/mL; day 3
[26] = molecular target: ED-B fibronectin antigen protein (recombinant), bound to CNBr activated sepharose 4B (UniProt P02751); experiment: ED-B sepharose column, % of total radioactivity bound; Study A; trolox 5 mg/mL; day 7
[27] = molecular target: ED-B fibronectin antigen protein (recombinant), bound to CNBr activated sepharose 4B (UniProt P02751); experiment: ED-B sepharose column, % of total radioactivity bound; Study A; sodium thiosulfate 25 mg/mL; day 3
[28] = molecular target: ED-B fibronectin antigen protein (recombinant), bound to CNBr activated sepharose 4B (UniProt P02751); experiment: ED-B sepharose column, % of total radioactivity bound; Study A; inositol 25 mg/mL; day 1

Sequence of 131I L19-SIP (radioiodinated L19 SIP homodimer) (chain): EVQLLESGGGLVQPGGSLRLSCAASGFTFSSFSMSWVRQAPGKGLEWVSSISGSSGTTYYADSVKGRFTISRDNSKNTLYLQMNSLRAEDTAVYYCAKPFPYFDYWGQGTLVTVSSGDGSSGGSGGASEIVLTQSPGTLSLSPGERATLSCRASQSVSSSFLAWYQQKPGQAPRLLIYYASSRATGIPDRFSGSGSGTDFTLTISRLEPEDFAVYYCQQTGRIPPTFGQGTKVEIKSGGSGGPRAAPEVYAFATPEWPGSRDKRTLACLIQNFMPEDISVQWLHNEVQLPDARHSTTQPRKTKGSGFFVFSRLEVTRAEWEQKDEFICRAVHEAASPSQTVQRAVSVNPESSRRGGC
Sequence of 131I L19-SIP (radioiodinated L19 SIP homodimer) (chain): as above
Sequence of UniProt P02751 (P02751 1266-1356 limits assumed): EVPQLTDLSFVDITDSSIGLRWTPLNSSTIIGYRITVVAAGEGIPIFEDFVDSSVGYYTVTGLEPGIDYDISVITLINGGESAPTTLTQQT

An Immunoreactivity (%) [1] of 56.2%, an Immunoreactivity (%) [2] of 70.4% and an Immunoreactivity (IR) (%) [3] of 78% were found for “131I L19-SIP (radioiodinated L19 SIP homodimer)” in this work. It also gave an Immunoreactivity (%) [4] of 96.2%, an Immunoreactivity (IR) (%) [5] of 75% and an Immunoreactivity (%) [6] of 62.6%. It also gave an Immunoreactivity (%) [7] of 92.3%, an Immunoreactivity (%) [8] of 89.5% and an Immunoreactivity (%) [9] of 65.2%. It also gave an Immunoreactivity (%) [10] of 58.9%, an Immunoreactivity (%) [11] of 93.6% and an Immunoreactivity (IR) (%) [12] of 60.7%. It also gave an Immunoreactivity (%) [13] of 93.4%, an Immunoreactivity (%) [14] of 48.6% and an Immunoreactivity (%) [15] of 61%. The Immunoreactivity (%) [16] was 78%, the Immunoreactivity (%) [17] was 94.1% and the Immunoreactivity (IR) (%) [18] was 59.9%. For the same substance, the Immunoreactivity (%) [19] was 70%, the Immunoreactivity (%) [20] was 92.8% and the Immunoreactivity (IR) (%) [21] was 73.2%. For the same substance, the Immunoreactivity (%) [22] was 66%, the Immunoreactivity (IR) (%) [23] was 60.6% and the Immunoreactivity (%) [24] was 86.4%. The Immunoreactivity (%) [25] was 66.3%, the Immunoreactivity (%) [26] was 52.9% and the Immunoreactivity (%) [27] was 92.3%. It also gave an Immunoreactivity (%) [28] of 88.7%.
